These are literature values, as cited in patent US20230250195A1, “Methods for Reducing Infusion-Related Reactions in Patients Treated with EGFR/Met Bispecific Antibodies” (Janssen Biotech, Inc., priority 2022, published 2023).

For this series the following is noted: 302 patients with locally advanced or metastatic NSCLC; IV amivantamab at recommended Phase 2 dose (RP2D) as a single agent.

On to “amivantamab: IgG1 anti-EGFR/c-Met bispecific antibody described in U.S. Pat. No. 9,593,164”, for which the “incidence of infusion-related reactions (IRRs)” value is recorded as 66%.
